This is an account of results in US20170088624A1.

The assay addresses Full length human CD40 (huCD40) on cells (human) (UniProt P25942). Nature of the assay: cell-based or functional assay.

CP-870,893 (antibody), sequence (VH): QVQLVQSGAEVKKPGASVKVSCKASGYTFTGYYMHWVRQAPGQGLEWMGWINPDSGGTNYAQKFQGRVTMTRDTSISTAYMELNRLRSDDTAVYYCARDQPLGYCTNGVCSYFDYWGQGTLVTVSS
CP-870,893 (antibody), sequence (VL): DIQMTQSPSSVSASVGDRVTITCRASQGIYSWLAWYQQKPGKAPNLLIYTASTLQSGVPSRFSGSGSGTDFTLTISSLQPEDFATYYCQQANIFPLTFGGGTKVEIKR
Full length human CD40 (huCD40) on cells (human), sequence (P25942 21-277): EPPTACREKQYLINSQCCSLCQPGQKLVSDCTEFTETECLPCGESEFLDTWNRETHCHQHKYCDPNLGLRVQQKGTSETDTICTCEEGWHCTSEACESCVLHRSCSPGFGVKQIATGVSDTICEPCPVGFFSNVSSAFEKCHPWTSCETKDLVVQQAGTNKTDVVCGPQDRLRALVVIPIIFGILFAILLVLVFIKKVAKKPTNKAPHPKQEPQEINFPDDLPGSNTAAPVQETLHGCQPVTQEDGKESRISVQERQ

In turn, CP-870,893 (antibody) displayed a B cells EC50, CD23 surface expression, no cross-linker of 3.17 ng/mL; a B cells EC50, CD80 surface expression, no cross-linker of 7.34 ng/mL; a B cells EC50, CD83 surface expression, no cross-linker of 4.28 ng/mL; a B cells EC50, CD86 surface expression, no cross-linker of 4.04 ng/mL. This substance displayed a B cells EC50, HLA-DR surface expression, no cross-linker of 8.15 ng/mL; a DC EC50, CD80 surface expression, no cross-linker of 44.7 ng/mL; a DC EC50, CD83 surface expression, no cross-linker of 245 ng/mL; a DC EC50, CD86 surface expression, no cross-linker of 133 ng/mL. Moreover, the DC EC50, HLA-DR surface expression, no cross-linker is 242 ng/mL.
